The values that follow come from paper PMC7923638 (BMC Biotechnology, 2021).

One data set has as its target T1, CsSDC (Camellia sinensis, UniProt A0A4S4DBB3).
T1 construct: gene SerDC; about 75 kDa on SDS-PAGE
In words: decarboxylase activity with and without […] PLP, UPLC. The settings on record: 20 mM serine, 40 °C, pH 7.0. It is filed as biochemical.

Substrate in the data set “purified protein”: C[C@H](N)C(=O)O
In words: purified protein. As to conditions: 45 °C, pH 8.0, 100 mM potassium phosphate, 0.1 mM PLP, 5 mM DTT, 1 mM K2EDTA, 10% glycerol, 1-100 mM substrate.

T1 sequence (A0A4S4DBB3 entry or part of it): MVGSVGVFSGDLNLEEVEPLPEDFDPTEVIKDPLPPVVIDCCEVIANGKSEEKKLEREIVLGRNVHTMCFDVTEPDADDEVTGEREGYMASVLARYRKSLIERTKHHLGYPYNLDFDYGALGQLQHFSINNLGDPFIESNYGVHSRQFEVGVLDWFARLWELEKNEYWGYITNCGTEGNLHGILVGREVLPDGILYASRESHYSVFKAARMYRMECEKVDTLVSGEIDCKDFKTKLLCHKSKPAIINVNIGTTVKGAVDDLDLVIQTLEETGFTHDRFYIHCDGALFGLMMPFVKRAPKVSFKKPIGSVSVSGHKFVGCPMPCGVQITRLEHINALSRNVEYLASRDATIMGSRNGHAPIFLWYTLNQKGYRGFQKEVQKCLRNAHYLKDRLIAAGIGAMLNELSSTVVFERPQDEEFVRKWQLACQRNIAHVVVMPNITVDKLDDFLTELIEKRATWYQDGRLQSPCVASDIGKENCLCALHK

As to `Cc1ncc(COP(=O)(O)O)c(C=O)c1O` [pyridoxal-5′-phosphate], the “decarboxylase activity with and without 0.1 mM PLP, UPLC” value at CsSDC is “activities of CsAlaDC and CsSDC are significantly dependent on the presence of PLP”.

B1: CsAlaDC (Camellia sinensis var. sinensis) (protein)
chain: MEGTVSVLSNVSKVELLSKCFDLITIPVEPLPPVVASNGVAGGETKNMKERDIVLGKNVHTTSLTITEPDVDDDSTSDMEAFMAGVLVRYRKTLIEKTKYHLGYPFNLDLDYGPLAELQHFAINNLGDPFIESNYGVHSRQFEVGVLDWFARLWEIEQKEYWGYITNGGTEGNLHGILIGREVFPDGIFYTSRESHYSIFKAARMYRMECVKVGTLINGEIDCADFKAKLLSNKDKPAIINLNIGTTVKGAVDDIDLVIQTLEECGFSHDRFYIHCDGALFGFMMPFLNRGPKITFKKPIGSVSVSGHKFMGCPTPCGVQITRLEHINALSRNVEYLASRDATITGSRNGHSPIILWYALNRKGFKGFQKEVQKCLRNAHYLKDRLREAGISAMLNELSSTVVFERPLDEEFVRRWQLACEGNMAHVIVMPNVTIEKLDEFLNELVQKRANWYNDGKAGPPCLAPDIGSENCDCDLHK
In general, Km refers to the substrate concentration at which the rate is half of its maximum. The Vmax is the rate approached at saturating substrate. With B1, in the data set “purified protein”, the Km amounted to 33.25 mM and the Vmax amounted to 3470 µmol/min/mg.
